Numbering of substitutions follows the chain as printed.
T1: recombinant murine MFG-E8 (rmMFG-E8) (mouse, UniProt P21956 23-463)
T1 construct: For SPR it was bought from R&D Systems (Cat #2767-MF-050); For the cell assays it was made in the lab; also called milk fat globule-epidermal growth factor-factor VIII; AlexaFluor568-rmMFG-E8
T1 sequence: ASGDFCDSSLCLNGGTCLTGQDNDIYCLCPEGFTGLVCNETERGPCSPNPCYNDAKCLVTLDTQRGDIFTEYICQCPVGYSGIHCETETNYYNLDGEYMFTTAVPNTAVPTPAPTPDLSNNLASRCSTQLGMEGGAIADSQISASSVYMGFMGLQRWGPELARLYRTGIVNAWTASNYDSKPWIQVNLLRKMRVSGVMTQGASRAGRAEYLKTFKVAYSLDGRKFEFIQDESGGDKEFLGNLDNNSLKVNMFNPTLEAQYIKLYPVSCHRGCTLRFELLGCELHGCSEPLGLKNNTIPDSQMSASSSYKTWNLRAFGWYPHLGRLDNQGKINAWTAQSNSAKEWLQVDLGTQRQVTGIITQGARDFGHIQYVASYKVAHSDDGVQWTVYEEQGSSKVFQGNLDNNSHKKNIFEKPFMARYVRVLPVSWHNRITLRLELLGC

T2: recombinant human MFG-E8 (rhMFG-E8) (human, UniProt Q08431 24-387, limits assumed)
T2 sequence (looked up): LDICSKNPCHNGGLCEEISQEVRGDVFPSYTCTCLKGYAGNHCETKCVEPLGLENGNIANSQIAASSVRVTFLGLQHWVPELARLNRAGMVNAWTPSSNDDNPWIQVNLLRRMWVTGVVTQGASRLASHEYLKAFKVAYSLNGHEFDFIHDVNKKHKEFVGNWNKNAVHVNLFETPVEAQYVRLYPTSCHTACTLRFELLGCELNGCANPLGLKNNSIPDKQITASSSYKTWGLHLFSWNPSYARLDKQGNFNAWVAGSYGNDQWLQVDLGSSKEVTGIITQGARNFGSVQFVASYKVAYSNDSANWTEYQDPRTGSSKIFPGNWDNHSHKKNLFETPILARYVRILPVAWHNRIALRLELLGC

B1: MFG-E8-derived oligopeptide 3 (MOP3) (peptide)
peptide: RGDSSSYKTWNLRAFGWY
notes: Synthetic 18-residue chimeric peptide: RGD followed by 15 residues of the mouse MFG-E8 discoidin domain 2
B2: recombinant murine (rm) CIRP (ligand, mouse, UniProt P60824 1-172, looked up)
chain: MASDEGKLFVGGLSFDTNEQALEQVFSKYGQISEVVVVKDRETQRSRGFGFVTFENIDDAKDAMMAMNGKSVDGRQIRVDQAGKSSDNRSRGYRGGSAGGRGFFRGGRSRGRGFSRGGGDRGYGGGRFESRSGGYGGSRDYYASRSQGGSYGYRSSGGSYRDSYDSYATHNE
notes: For SPR it was bought (Cat # CSB-EP613483He0); For the cell assays it was made in the lab and, in the uptake experiments, labelled with FITC; also called eCIRP
B3: recombinant human CIRP (rhCIRP) (ligand, UniProt Q14011 1-172, looked up)
chain: B2 chain with A21S, S109G, G126N, A143S, G148S, S150G, G152S, Y153D
notes: The source of rhCIRP is not described in the methods

How the values were obtained:
[1] = biological target: T3, αvβ3-integrin (recombinant, R&D Systems Cat #7889-AV-050); assay: SPR (Biacore/OpenSPR); αvβ3-integrin as analyte at 31.25-125 nM; 1:1 fit
T3 construct: Used as the analyte in SPR over immobilised MOP3; also called αvβ3-integrin receptor; auß3-integrin
T3 sequence (P43406 31-988, chain 1 of 2): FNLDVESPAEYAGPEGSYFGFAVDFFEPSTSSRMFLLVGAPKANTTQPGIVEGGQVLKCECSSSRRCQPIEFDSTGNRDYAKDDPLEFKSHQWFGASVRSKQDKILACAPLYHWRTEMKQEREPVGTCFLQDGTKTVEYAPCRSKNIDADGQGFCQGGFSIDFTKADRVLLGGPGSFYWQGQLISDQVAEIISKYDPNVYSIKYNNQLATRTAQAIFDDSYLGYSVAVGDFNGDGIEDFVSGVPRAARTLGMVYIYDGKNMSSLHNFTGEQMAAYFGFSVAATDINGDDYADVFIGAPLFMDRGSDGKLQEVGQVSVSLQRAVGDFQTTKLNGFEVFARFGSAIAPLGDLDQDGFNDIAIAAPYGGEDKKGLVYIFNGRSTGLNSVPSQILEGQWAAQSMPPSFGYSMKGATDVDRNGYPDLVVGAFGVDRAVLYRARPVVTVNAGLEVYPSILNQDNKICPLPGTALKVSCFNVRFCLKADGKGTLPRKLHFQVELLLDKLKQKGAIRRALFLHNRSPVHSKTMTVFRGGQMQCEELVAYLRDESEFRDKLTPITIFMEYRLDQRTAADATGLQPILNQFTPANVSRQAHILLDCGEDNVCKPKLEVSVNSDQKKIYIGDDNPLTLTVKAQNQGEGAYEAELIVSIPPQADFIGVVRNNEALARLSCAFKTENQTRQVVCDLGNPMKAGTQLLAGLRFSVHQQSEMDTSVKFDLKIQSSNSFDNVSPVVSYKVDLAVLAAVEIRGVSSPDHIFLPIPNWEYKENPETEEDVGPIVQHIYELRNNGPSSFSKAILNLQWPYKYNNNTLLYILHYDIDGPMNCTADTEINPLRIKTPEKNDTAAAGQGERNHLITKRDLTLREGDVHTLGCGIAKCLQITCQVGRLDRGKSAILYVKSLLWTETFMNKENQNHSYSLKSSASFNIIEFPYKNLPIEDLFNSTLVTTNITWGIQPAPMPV
T3 sequence (O54890 26-717, chain 2 of 2, further chain): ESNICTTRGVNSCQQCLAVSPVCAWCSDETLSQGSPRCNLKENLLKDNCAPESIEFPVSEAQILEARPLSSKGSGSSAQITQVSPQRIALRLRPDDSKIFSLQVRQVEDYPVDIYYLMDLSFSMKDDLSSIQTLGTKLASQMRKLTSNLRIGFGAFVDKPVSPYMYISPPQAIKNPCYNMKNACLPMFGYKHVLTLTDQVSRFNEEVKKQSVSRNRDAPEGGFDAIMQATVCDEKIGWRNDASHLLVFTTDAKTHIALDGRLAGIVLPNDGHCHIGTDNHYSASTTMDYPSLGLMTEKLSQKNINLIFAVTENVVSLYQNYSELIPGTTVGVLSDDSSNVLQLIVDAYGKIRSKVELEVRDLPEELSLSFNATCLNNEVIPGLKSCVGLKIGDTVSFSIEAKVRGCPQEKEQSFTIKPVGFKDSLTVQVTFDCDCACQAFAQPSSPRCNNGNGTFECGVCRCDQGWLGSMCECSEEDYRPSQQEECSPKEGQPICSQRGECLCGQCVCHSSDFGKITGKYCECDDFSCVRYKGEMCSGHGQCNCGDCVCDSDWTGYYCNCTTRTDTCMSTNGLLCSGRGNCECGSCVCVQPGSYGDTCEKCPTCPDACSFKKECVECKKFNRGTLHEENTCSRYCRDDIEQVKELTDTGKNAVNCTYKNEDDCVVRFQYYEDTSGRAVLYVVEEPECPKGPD
Procedure: (§1) To examine the direct interaction between rmCIRP and rmMFG-E8, surface plasmon resonance (SPR), OpenSPR (Nicoya), was performed between rmCIRP and rmMFG-E8. rmCIRP was immobilized on carboxyl sensor and rmMFG-E8 was injected as an analyte in concentrations of 15.7 nM to 250 nM. Binding reactions were performed in DPBS, with Calcium and Magnesium, 0.05% P20, 1% BSA, and pH 7.4. In parallel experiments, binding of MOP3 to rmCIRP (analyte) was performed with concentrations of 0.5 μm to 2 μM, and binding of MOP3 to αᵥβ₃-integrin (analyte) was performed in concentrations of 31.25 nM to 125 nM. All binding reactions were performed in PBS 0.05% P20, pH7.4. Briefly, the carboxyl sensor was first cleaned by injection 10 mM HCL 150 μl, followed by injection of 150 μl of the mixture of 1 aliquot of N-ethyl-N′-[3-[…]]-carbodiimide (EDC) and 1 aliquot of N-hydroxysuccinimide (NHS) to activate the sensor surface. An aliquot of 200 μl of 50 μg/ml of the ligand diluted in 10 mM sodium acetate (pH 5.5) was injected at 20 μl/minutes into flow cell-channel-2 of the sensor for immobilization. Next, 150 μl of 1 M […] (pH 8.5) was injected to deactivate the remaining active sites on channel 1&2. […] To evaluate binding, the analyte was injected into flow cell-1 and flow cell-2 and increasing concentrations and real-time interaction data were analyzed by TraceDrawer (Nicoya). […]

[2] = biological target: B2; assay: SPR (Biacore/OpenSPR); rmCIRP as analyte at 0.5-2 µM; 1:1 fit; Example 2, Biacore
Procedure: as §1

[3] = biological target: B2; assay: SPR (Example 1); Example 1; paragraph 73 gives a separate value of 3.1×10^-7 M
[4] = biological target: T1, recombinant murine MFG-E8 (rmMFG-E8); assay: SPR (Biacore/OpenSPR); rmCIRP immobilised, rmMFG-E8 as analyte at 15.7-250 nM; 1:1 fit; mouse proteins
Procedure: as §1

[5] = biological target: T2, recombinant human MFG-E8 (rhMFG-E8); assay: SPR (Biacore); human proteins

Binder: B1
- Kd [1]: 776 nM
- Kd [2]: 310 nM
- Kd [3]: 13 nM

Binder: B2
- Kd [4]: 200 nM

Binder: B3
- Kd [5]: 29 nM

— US20240197828A1 (FEINSTEIN INSTITUTES FOR MEDICAL RESEARCH, published 2024)
